Absorbance data for 2 substances are collected here from patent publication US20100151566A1.

The target of assay [1] is P6447aa-VEGF fusion protein (human (VEGF part); Neisseria meningitidis (P64K part)). Nature of the assay: ELISA on coated antigen, 20 µg/mL; negative control. Background: ELISA stands for enzyme-linked immunosorbent assay.
The target in assay [2] is Isoform 121 of human VEGF-A (Peprotech) (human) (UniProt P15692). The description is as above.
Assay [3] shares this target. Nature of the assay: ELISA, antigen coated at 5 µg/mL, KDR-Fc 0.125 µg/mL.
Assay [4] has the same target. As to the kind of experiment: ELISA, antigen coated at 5 µg/mL, KDR-Fc 0.25 µg/mL.
The target is the same in assay [5]. As to the kind of experiment: ELISA, antigen coated at 5 µg/mL, KDR-Fc 1.0 µg/mL.
Assay [6] has the same target. As to the kind of experiment: ELISA, antigen coated at 5 µg/mL, KDR-Fc 0.5 µg/mL.

Chain of soluble human receptor KDR-Fc (Sigma) (P35968 20-764 limits assumed): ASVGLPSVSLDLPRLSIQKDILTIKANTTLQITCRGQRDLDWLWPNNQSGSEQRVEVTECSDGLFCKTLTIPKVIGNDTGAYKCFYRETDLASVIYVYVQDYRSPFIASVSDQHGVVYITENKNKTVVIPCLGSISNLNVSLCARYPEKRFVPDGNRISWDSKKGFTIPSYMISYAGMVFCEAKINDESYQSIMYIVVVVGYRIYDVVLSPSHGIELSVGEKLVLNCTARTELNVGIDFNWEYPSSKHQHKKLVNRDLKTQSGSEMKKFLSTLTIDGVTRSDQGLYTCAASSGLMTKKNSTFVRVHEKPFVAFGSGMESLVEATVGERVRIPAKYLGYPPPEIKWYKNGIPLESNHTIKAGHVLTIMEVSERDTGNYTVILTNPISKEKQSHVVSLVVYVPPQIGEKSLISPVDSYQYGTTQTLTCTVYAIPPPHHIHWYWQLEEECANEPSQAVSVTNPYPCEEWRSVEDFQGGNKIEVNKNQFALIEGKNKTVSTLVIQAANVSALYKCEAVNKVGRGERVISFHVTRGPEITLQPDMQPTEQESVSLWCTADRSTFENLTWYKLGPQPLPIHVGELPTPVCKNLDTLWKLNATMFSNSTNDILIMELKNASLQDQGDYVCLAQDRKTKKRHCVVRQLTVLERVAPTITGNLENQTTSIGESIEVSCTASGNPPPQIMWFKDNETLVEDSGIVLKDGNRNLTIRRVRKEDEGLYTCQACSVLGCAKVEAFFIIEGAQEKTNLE
Chain of Isoform 121 of human VEGF-A (Peprotech) (human) (P15692 other isoform, or with tags, fused parts or gaps): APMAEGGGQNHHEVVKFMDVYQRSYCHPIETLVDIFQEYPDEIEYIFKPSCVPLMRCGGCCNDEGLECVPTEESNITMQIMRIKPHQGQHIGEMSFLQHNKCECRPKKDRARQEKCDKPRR

Regarding “TheraCIM (anti EGF receptor humanized IgG1 antibody; CIMAB SA, Havana)”, the absorbance at 492 nm in assay [1] turned out to be 0.112 OD 492 nm; in assay [2], 0.097 OD 492 nm.
On to “soluble human receptor KDR-Fc (Sigma) (from UniProt P35968 20-764) (Fc fusion)”, for which the absorbance at 492 nm was 0.76 OD 492 nm in assay [3], 1.04 OD 492 nm in assay [4], 1.48 OD 492 nm in assay [5] and 1.27 OD 492 nm in assay [6].
